Measurements from article PMC9000616 (Molecules, 2022).

Biological target: the molecule itself
Experiment: AUC; sedimentation velocity, 20 °C, Rayleigh interference optics, c(s) analysis converted into c(M); AtDSEL at 3.0, 1.5 and 0.8 mg/mL; CaPLA1 at 1.1, 0.5 and 0.3 mg/mL

Protein	stoichiometry N
Capsicum annuum phospholipase A1 homolog (enzyme, UniProt A5YW95 1-397, looked up, CaPLA1, phospholipase A1 of hot pepper (Capsicum annuum), full length, UniProt A5YW95; A non-native Gly from the TEV site (ENLYFQG) is left at the N-terminus after cleavage; Homodimer by crystal structure and AUC; also called CaPLA1; source: E. coli BL21 (DE3), purified (Ni-NTA, TEV cleavage, Ni-NTA, SEC); not shown: His6, N-terminal, cleaved) MGSMAEKWEELSGKNNWEGLLNPLDLDLRKYIIQYGELAQATYDTFISERASKYAGASRYSMENFFTKVGLDPSKYHVTKFFYGTSSIPLPDAFMTRSLSREAWSKESNFMGYIAVATDEGKVALGRRDIVINWRGTLQVLEWVNDLQFLLVPAPKVFGDGGLLPLFHPLVHHGFHNIYTTENPRSQFNKTCVRDQVMEEVKRLVEEYKNEEVSITVTGHSLGASLATLNAVDIAFNGINKSSNGKEFPVTAFVFASPKVGDLNFHKAFSKLKHLHILRIHNLLDIVPKYPPVGYFDVGQELMIDTTKSPYVKPPGEVVSWHLLEPYLHGIAGTQGIGMTAGFKLEVNRDISLVNKQWMILKDEYCIPPLWWSEKHKGMVQQQDGSWLLQDRDDYEF	2
Arabidopsis thaliana DAD1-like seedling establishment-related lipase (enzyme, UniProt O49523 1-419, looked up, AtDSEL, phospholipase A1 of Arabidopsis thaliana, full length, UniProt O49523; A non-native Gly from the TEV site (ENLYFQG) is left at the N-terminus after cleavage; Homodimer by crystal structure and AUC; also called AtDSEL; source: E. coli BL21 (DE3), purified (Ni-NTA, TEV cleavage, Ni-NTA, SEC); not shown: His6, N-terminal, cleaved) MKRKKKEEEEEKLIVTREFAKRWRDLSGQNHWKGMLQPLDQDLREYIIHYGEMAQAGYDTFNINTESQFAGASIYSRKDFFAKVGLEIAHPYTKYKVTKFIYATSDIHVPESFLLFPISREGWSKESNWMGYVAVTDDQGTALLGRRDIVVSWRGSVQPLEWVEDFEFGLVNAIKIFGERNDQVQIHQGWYSIYMSQDERSPFTKTNARDQVLREVGRLLEKYKDEEVSITICGHSLGAALATLSATDIVANGYNRPKSRPDKSCPVTAFVFASPRVGDSDFRKLFSGLEDIRVLRTRNLPDVIPIYPPIGYSEVGDEFPIDTRKSPYMKSPGNLATFHCLEGYLHGVAGTQGTNKADLFRLDVERAIGLVNKSVDGLKDECMVPGKWRVLKNKGMAQQDDGSWELVDHEIDDNEDLDF	2
